In US20100184614, “MICROARRAY SYSTEMS AND METHODS FOR IDENTIFYING DNA-BINDING PROTEINS” (published 2010):

Molecular target: Estrogen receptor alpha (UniProt P03372 P03372:1-595)
Test: EMSA; column gel, 30 min
Conditions: tags: Invitrogen; label: IRDye 700 or Cy3; partially double-stranded; 3' single-stranded tag
Procedure: A similar result is obtained using recombinant estrogen receptor alpha (ER-alpha) protein. ER-alpha is obtained from INVITROGEN® and mixed with YZ11 (its specific probe) labeled with IR Dye 700. The mixture was then loaded on the column gel and run for 30 minutes (FIG. 10).

Estrogen receptor alpha, sequence (P03372 whole entry, one chain of several): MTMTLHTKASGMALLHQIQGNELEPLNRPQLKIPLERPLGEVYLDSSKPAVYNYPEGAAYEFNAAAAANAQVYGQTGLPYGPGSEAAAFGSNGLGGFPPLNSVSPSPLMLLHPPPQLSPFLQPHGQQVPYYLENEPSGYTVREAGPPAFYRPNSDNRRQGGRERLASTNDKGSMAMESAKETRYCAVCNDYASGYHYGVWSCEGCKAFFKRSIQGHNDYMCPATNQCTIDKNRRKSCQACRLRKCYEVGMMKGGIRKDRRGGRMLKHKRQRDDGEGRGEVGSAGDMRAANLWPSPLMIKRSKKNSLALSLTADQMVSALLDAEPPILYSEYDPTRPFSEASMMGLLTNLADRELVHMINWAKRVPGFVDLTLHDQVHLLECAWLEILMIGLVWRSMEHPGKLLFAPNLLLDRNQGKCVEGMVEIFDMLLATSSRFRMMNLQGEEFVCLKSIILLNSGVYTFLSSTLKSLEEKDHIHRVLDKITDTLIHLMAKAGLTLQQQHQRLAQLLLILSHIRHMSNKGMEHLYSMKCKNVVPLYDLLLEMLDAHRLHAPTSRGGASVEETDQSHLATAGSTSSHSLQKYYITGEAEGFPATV

B1: YZ-11 (Table 17) (mixed)
DNA 1: CCTGCCAGGTCGCGCTGCCCTCCTTCTACCATGCCTTAGGAGAATTGTTTTGTTT
DNA 2: GGTAGAAGGAGGGCAGCGCGACCTGGCAGG
binding result: binds
